The results in this text go back to patent US20100129369A1 (Eli Lilly, published 2010).

What all share (assay): cell-based or functional assay
The target in experiment [1] is T1, human c-Met (human, UniProt P08581 25-1390).
The target of experiment [2] is T1, human c-Met. The source holds these as a separate data set.
Experiment [3] addresses T1, human c-Met. This is another data set of the same source.
Experiment [4] addresses T1, human c-Met. The source holds these as a separate data set.
The target of experiment [5] is T1, human c-Met. The source holds these as a separate data set.

T1 sequence (P08581 25-1390): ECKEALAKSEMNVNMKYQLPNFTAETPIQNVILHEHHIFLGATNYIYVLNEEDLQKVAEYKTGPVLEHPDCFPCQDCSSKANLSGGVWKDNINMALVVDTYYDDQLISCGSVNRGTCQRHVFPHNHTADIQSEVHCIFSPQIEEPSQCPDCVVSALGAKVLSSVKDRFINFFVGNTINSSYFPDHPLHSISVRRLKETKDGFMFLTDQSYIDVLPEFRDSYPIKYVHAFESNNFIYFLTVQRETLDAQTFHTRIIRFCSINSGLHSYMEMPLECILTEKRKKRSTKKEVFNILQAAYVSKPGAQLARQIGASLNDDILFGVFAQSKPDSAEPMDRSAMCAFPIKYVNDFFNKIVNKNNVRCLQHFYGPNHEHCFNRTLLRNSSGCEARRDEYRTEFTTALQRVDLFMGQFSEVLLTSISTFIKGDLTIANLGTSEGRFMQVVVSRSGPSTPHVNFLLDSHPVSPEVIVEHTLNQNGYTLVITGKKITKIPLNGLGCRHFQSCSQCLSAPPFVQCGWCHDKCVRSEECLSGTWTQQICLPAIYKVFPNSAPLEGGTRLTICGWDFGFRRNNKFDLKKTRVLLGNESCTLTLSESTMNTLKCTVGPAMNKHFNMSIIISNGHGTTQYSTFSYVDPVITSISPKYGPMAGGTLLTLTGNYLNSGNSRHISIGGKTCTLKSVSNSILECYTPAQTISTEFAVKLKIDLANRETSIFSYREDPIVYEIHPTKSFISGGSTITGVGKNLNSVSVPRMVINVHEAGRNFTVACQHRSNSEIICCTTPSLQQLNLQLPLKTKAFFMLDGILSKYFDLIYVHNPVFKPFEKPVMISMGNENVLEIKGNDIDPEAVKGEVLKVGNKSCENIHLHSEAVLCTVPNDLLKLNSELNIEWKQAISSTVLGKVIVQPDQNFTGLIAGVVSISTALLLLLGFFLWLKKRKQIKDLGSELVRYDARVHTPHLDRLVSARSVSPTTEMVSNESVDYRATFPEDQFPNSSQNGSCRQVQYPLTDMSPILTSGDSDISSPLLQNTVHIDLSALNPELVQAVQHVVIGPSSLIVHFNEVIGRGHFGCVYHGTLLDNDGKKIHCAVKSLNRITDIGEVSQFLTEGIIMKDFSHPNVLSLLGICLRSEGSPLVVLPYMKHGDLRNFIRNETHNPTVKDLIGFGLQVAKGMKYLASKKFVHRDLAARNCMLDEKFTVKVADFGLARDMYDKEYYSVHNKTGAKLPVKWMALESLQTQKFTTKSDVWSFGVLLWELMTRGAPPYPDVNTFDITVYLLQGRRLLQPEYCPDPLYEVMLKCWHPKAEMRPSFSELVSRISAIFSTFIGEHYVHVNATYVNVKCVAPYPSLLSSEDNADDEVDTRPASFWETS

B1: C8-6 (antibody, human IgG2, kappa, V domains shown)
VH: QVQLVQSGAEVKKPGASVKVSCKASGYTFTDYYMHWVRQAPGQGLEWMGRVNPNRGGTTYNQKFEGRVTMTTDTSTSTAYMELRSLRSDDTAVYYCARTNWLDYWGQGTTVTVSS
VL: DIQMTQSPSSLSASVGDRVTITCSVSSSVSSIYLHWYQQKPGKAPKLLIYSTSNLASGVPSRFSGSGSGTDFTLTISSLQPEDFATYYCIQYSGYPLTFGGGTKVEIKR
With B1, in the experiment with human c-Met [1], the “3H-Thymidine Incorporation in Caki-1 Cells in the Absence of HGF (AVG CPM), antibody dose 0.1 ng/mL” value came out at 16100 CPM; the “3H-Thymidine Incorporation in Caki-1 Cells in the Absence of HGF (AVG CPM), antibody dose 0.4 ng/mL” value turned out to be 14600 CPM; the “3H-Thymidine Incorporation in Caki-1 Cells in the Absence of HGF (AVG CPM), antibody dose 2.6 ng/mL” value is 14100 CPM; the “3H-Thymidine Incorporation in Caki-1 Cells in the Absence of HGF (AVG CPM), antibody dose 15.4 ng/mL” value was 13700 CPM. For the same molecule, in the experiment with human c-Met [1], the “3H-Thymidine Incorporation in Caki-1 Cells in the Absence of HGF (AVG CPM), antibody dose 92.6 ng/mL” value is 12800 CPM; the “3H-Thymidine Incorporation in Caki-1 Cells in the Absence of HGF (AVG CPM), antibody dose 555.6 ng/mL” value is 13500 CPM; the “3H-Thymidine Incorporation in Caki-1 Cells in the Absence of HGF (AVG CPM), antibody dose 3333.3 ng/mL” value was determined as 13200 CPM; the “3H-Thymidine Incorporation in Caki-1 Cells in the Absence of HGF (AVG CPM), antibody dose 20000.0 ng/mL” value turned out to be 13200 CPM. Moreover, in the experiment with human c-Met [2], the “3H-Thymidine Incorporation in Primary Human Hepatocytes in the Absence of HGF (average), dose 0.0032 ug/mL” value came to 736; the “3H-Thymidine Incorporation in Primary Human Hepatocytes in the Absence of HGF (average), dose 0.016 ug/mL” value turned out to be 770; the “3H-Thymidine Incorporation in Primary Human Hepatocytes in the Absence of HGF (average), dose 0.08 ug/mL” value worked out at 792; the “3H-Thymidine Incorporation in Primary Human Hepatocytes in the Absence of HGF (average), dose 0.4 ug/mL” value is 802. Moreover, in the experiment with human c-Met [2], the “3H-Thymidine Incorporation in Primary Human Hepatocytes in the Absence of HGF (average), dose 2 ug/mL” value amounted to 892 and the “3H-Thymidine Incorporation in Primary Human Hepatocytes in the Absence of HGF (average), dose 10 ug/mL” value is 1040. For the same molecule, the “Tubular Morphogenesis Agonist activity (fold stimulation) in HepG2 cells, antibody 50 ug/ml” value with human c-Met [3] was 1.2 fold stimulation. The “Percent of DU145 Cells in Colonies (scatter assay), antibody 20 ug/mL” value with human c-Met [4] was determined as 23.3%. Besides, in the experiment with human c-Met [5], the “Staurosporine-Induced Apoptosis in Caki-1 Cells, Average A450 nm, antibody dose 3 ng/mL” value was 1.09 A450 nm; the “Staurosporine-Induced Apoptosis in Caki-1 Cells, Average A450 nm, antibody dose 30 ng/mL” value is 1.02 A450 nm; the “Staurosporine-Induced Apoptosis in Caki-1 Cells, Average A450 nm, antibody dose 300 ng/mL” value worked out at 0.97 A450 nm; the “Staurosporine-Induced Apoptosis in Caki-1 Cells, Average A450 nm, antibody dose 3000 ng/mL” value amounted to 0.92 A450 nm. Moreover, the “Staurosporine-Induced Apoptosis in Caki-1 Cells, Average A450 nm, antibody dose 30000 ng/mL” value with human c-Met [5] stood at 0.96 A450 nm.
